Test results published in PMC6990103 (Journal of molecular biology, 2019).

Key:
[1] = target: T1, nluc-NP612 fusion protein, BDBV (Bundibugyo ebolavirus, Uganda 2007, UniProt B8XCM7); assay: far-Western, overlay or dot blot; conditions: both partners purified
T1 construct: also called BDBV NP612 C-terminus; source: E. coli BL21(DE3)+pRARE, cytosolic, purified (IMAC, SEC)

[2] = target: T2, recombinant SUDV Boniface 1976 NP (Sudan ebolavirus, Boniface 1976, UniProt Q9QP77); assay: far-Western, overlay or dot blot; conditions: both partners purified
T2 construct: also called SUDV NP; full-length NP polymers

[3] = target: T3, nluc-NP612 fusion protein, TAFV (Tai Forest ebolavirus, IC1 1994, UniProt B8XCN6); assay: far-Western, overlay or dot blot; conditions: both partners purified
T3 construct: also called TAFV C-terminus; source: E. coli BL21(DE3)+pRARE, cytosolic, purified (IMAC, SEC)

[4] = target: T4, nluc-NP612 fusion protein, RESTV (Reston ebolavirus, Reston 1989 (isolate …, UniProt Q8JPY1)); assay: far-Western, overlay or dot blot; conditions: both partners purified
T4 construct: also called RESTV NP612 C-terminus; source: E. coli BL21(DE3)+pRARE, cytosolic, purified (IMAC, SEC)

[5] = target: T5, recombinant TAFV IC1 1994 NP (Tai Forest ebolavirus (TAFV)., UniProt B8XCN6); assay: far-Western, overlay or dot blot; conditions: both partners purified
T5 construct: also called TAFV NP

recombinant BDBV 2007 NP [6] = target: T6, recombinant BDBV 2007 NP (Bundibugyo ebolavirus (BDBV)., UniProt B8XCM7); assay: far-Western, overlay or dot blot; conditions: both partners purified
T6 construct: also called BDBV NP

[7] = target: T7, nluc-NP612 fusion protein, SUDV (Sudan ebolavirus, Boniface 1976 …, UniProt Q9QP77); assay: far-Western, overlay or dot blot; conditions: both partners purified
T7 construct: also called SUDV NP612 C-terminus; source: E. coli BL21(DE3)+pRARE, cytosolic, purified (IMAC, SEC)

[8] = target: T1, nluc-NP612 fusion protein, BDBV; assay: ELISA; conditions: both partners purified
[9] = target: T2, recombinant SUDV Boniface 1976 NP; assay: ELISA; conditions: both partners purified
[10] = target: T3, nluc-NP612 fusion protein, TAFV; assay: ELISA; conditions: both partners purified
[11] = target: T4, nluc-NP612 fusion protein, RESTV; assay: ELISA; conditions: both partners purified
[12] = target: T5, recombinant TAFV IC1 1994 NP; assay: ELISA; conditions: both partners purified
[13] = target: T8, NP of TAFV IC1 1994 in live virus preparation (Tai Forest ebolavirus (TAFV)., UniProt B8XCN6); assay: ELISA; conditions: one partner purified
T8 construct: also called TAFV (virus)

recombinant BDBV 2007 NP [14] = target: T6, recombinant BDBV 2007 NP; assay: ELISA; conditions: both partners purified
[15] = target: T7, nluc-NP612 fusion protein, SUDV; assay: ELISA; conditions: both partners purified
[16] = target: T9, NP of SUDV Boniface 1976 in live virus preparation (Sudan ebolavirus, Boniface 1976, UniProt Q9QP77); assay: ELISA; conditions: one partner purified
T9 construct: also called SUDV (virus)

Measured: binding result

B1: sdAb ZE alkaline phosphatase fusion (VHH)
VHH: QVQLQESGGGLVQPGGSLRLSCTASGFTLAEYGVGWFRQAPGKERELVALIAVGGTTHSIDSVKGRFTISRDNMKNTVYLQMNSLNVEDTAVYYCNAYSSAYDRNYWGQGTQVTVSS
notes: also called sdAb-AP fusion of ZE; source: previously generated [9], stored at -80 °C
binds: [1] | [2] | [3] | [4] | [5] | recombinant BDBV 2007 NP [6] | [7]

B2: sdAb ZE, biotinylated (from pecan126) (VHH)
VHH: QVQLQESGGGLVQPGGSLRLSCTASGFTLAEYGVGWFRQAPGKERELVALIAVGGTTHSIDSVKGRFTISRDNMKNTVYLQMNSLNVEDTAVYYCNAYSSAYDRNYWGQGTQVTVSS
notes: also called anti-Ebola virus sdAb; oriented sdAb captor; source: E. coli HBV88, pecan126 preparations
binds: [8] | [9] | [10] | [11] | [12] | [13] | recombinant BDBV 2007 NP [14] | [15] | [16]
